One molecule from patent US20240360229A1 can be followed below.

This experiment deals with human CCR8 (human) (UniProt P51685). Description: cell-based or functional assay.
Chain of human CCR8 (human) (P51685 whole entry): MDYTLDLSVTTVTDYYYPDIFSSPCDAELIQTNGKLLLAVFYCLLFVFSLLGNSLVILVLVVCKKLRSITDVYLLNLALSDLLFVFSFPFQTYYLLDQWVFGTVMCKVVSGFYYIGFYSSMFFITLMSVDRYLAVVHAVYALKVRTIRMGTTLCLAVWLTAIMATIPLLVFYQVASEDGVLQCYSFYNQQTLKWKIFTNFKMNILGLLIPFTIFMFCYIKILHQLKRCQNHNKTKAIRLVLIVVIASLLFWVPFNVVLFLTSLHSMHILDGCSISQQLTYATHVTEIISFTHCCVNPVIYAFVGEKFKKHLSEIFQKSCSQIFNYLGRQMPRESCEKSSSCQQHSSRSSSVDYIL

B1: control antibody (BD, Cat. #433H) (antibody, from another filing, V domains shown)
VH: EVQLVETGGGLVQPKGSLRLSCAASGFPFNTFAMNWVRQAPGKGLEWLARIRSKSNNYATYYADSVKDRFTISRDDSRRMLYLLMNNVKFEDTAIYYCVRGKENNYGYAMDYWGQGTSVTVSS
VL: DIVMTQAAPSVPVTPGESVSISCRSSQSLLHSNGNTYLYWFLQRPGQSPQLLIYRMSNLASGVPDRFSGSGSGTAFTLRISRVEAEDVGVYYCMQHLEYPFTFGIGTKLELKR
B1 returned an IC50 of inhibition of CCL1-mediated activation of CCR8 (Ca2+ influx, FLIPR, CHO/hCCR8.Gna15 cells) of 8.4 nM.
